Experimental data as given in publication PMC4554539 (2016).
Like-named read-outs stand apart in the source and are kept apart here.

Experiments:
[1] = target: T1, Na-Cl co-transporter (NCC) (Mus musculus, UniProt P59158); assay: FITC-IL18 binding to NCC-transfected COS-7 cell membranes, Scatchard analysis
T1 chain: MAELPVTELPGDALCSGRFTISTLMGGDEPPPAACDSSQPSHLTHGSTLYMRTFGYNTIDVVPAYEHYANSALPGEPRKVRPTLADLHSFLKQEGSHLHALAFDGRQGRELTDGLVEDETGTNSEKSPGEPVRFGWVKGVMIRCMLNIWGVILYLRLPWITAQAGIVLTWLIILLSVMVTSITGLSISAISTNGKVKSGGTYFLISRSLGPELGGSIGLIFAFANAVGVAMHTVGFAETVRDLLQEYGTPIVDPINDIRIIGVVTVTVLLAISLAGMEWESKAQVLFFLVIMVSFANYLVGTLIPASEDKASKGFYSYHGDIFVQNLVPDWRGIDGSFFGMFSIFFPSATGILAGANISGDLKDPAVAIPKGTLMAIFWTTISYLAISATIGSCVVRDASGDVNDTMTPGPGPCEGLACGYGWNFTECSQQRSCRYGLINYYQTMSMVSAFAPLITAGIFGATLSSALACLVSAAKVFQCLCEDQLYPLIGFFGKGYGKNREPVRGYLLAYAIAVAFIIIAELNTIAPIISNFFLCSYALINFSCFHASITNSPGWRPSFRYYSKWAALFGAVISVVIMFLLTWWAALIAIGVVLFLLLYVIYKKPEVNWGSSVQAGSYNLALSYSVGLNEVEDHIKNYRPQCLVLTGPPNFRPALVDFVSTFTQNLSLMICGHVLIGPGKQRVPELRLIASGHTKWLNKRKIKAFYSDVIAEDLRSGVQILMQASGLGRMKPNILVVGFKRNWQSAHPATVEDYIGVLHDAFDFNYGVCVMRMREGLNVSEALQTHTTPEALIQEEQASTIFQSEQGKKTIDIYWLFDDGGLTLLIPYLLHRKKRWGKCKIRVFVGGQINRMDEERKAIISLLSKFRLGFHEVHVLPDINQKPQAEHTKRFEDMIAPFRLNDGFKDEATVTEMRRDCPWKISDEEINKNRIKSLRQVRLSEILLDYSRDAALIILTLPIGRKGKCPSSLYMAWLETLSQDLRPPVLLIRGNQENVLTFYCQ

[2] = target: T1, Na-Cl co-transporter (NCC)

- Kd [1]: 17.3 nM
- Kd [2]: 21.4 nM
B1: IL-18 (protein)
chain: NFGRLHCTTAVIRNINDQVLFVDKRQPVFEDMTDIDQSASEPQTRLIIYMYKDSEVRGLAVTLSVKDSKMSTLSCKNKIISFEEMDPPENIDDIQSDLIFFQKRVPGHNKMEFESSLYEGHFLACQKEDDAFKLILKKKDENGDKSVMFTLTNLHQS
modifications: FITC-conjugated IL18
